# Measurements: patent US8536113B2, “EGFR binding peptides and uses thereof” (Janssen Biotech, Inc., priority 2006, dated 2013)
# Bridges are numbered along the chain shown (N, C = ends). Where no end group is shown, it is not given here.
# How the values were obtained:
# sEGFR-MMB = biological target: T1, sEGFR-MMB (Homo sapiens, UniProt P00533); assay: Phage ELISA screening of panning hits; type: binding; conditions: phage clone culture supernatant; background typically <200 units
# T1 construct: made in house; host or cells: Human Embryonic Kidney cells (293E)
# Method: Phage Screening. Individual phage clones from selections were amplified and screened for EGFR binding by phage ELISA. To amplify pIII phage for screening, phage eluates from round 3 were diluted appropriately and plated with a lawn of XL-1 Blue to yield isolated single plaques. 24 plaques from each pool were picked and inoculated into a culture of XL-1 Blue host cells. The cultures were shaken at 37° C. for 4.5 hr and the cells were removed by centrifugation. To amplify pIX-displaying phagemid clones, phage eluates were infected into XL-1 Blue and plated onto LB-ampicillin plates. Individual colonies were cultured in 1 ml volumes and rescued with VCS-M13 helper phage. Bacterial cells were removed from phage cultures by centrifugation at (2250×g, 7 min) and the phage-containing supernatant was saved.
# The protein solution was removed and wells were rinsed twice with Tris-Buffered Saline containing 0.05% Tween-20 (TBS-T) using a plate washer (Embla). The wells were blocked with Starting Block in TBS for 1 hr at room temperature and rinsed twice with TBS-T. An equal volume of phage supernatant and Starting Block in TBS were incubated in the wells for 1 hr at room temperature, and the wells were rinsed five times with TBS-T. Anti-M13/horseradish peroxidase conjugate (Amersham), diluted 1:5000 in Starting Block in TBS, was added into the wells and incubated for 1 hour at room temperature, and then the wells were rinsed five times with TBS-T. Finally, chemiluminescent peroxidase substrate (Roche) was added to the wells, and chemiluminescence was measured on a Tecan plate reader.
# Sequences and ELISA signal (background typically <200 units) are given, along with a consensus sequence, if any. Cysteines that are fixed in the library design are underlined.
# A431 cells = assay: Flow cytometry of phage binding to tumor cells; type: cell-based, human; conditions: for binding to A431 tumor cells: anti-phage-FITC antibody, 4° C.
# Method: (§1) Flow cytometry. To evaluate whether the selected peptides from phage display can bind to tumor cells that overexpress EGFR, A431 cells (epidermoid cancer) or an EGFR negative tumor cells, MCF-7 (breast carcinoma) were tested in a flow cytometry assay using fluorescence detection (FACS). For P145, PP146 and their control phage, 2.5×10^5 A431 cells were resuspended in 25 μl of flow staining buffer (dPBS with 1% BSA, 0.09% sodium azide) and incubated with 25 μl of phage clones for 1 hour at 4° C. […] Cells were washed two times with flow staining buffer and then incubated with 0.5 μg of mouse anti M13/fd/F1 filamentous phages monoclonal antibody conjugated to FITC (Fitzgerald Industries International, Inc. Concord, Mass.) for 45 minutes at 4° C. Cells were washed two times with flow staining buffer and acquired by FACSCalibur (BD, Franklin Lakes, N.J.) to detect bound phages on tumor cell surface. Results.
# (§2) A431 cells (epidermoid cancer) which overexpress EGFR and EGFR-negative tumor cells, MCF-7 (breast carcinoma) were tested in a flow cytometry assay. Tumor cells (A431 and MCF-7) were harvested with 0.25% tyrpsin-EDTA and washed twice with FACS staining buffer (dPBS with 1% BSA, 0.09% sodium azide). […] After binding at 4° C., cells were washed twice with FACS staining buffer to remove unbound phage and then incubated with 0.5 μg of mouse anti-M13 monoclonal antibody conjugated to FITC (Fitzgerald Industries International, Inc. Concord, Mass.) for 1 hour at 4° C. Mouse anti-M13-FITC incubated with cells without phage was used as background binding. Cells were washed twice with FACS staining buffer to remove unbound detection antibody.
# MCF-7 = assay: Flow cytometry of phage binding to EGFR negative tumor cells; type: cell-based, human; conditions: EGFR positive versus EGFR negative cells
# Method: as §1, §2
Substance,ELISA signal (sEGFR-MMB) [units],further results
"10 (YRLFVDESIFFCTRL; S15 library, which displays a random linear 15-mer) [compound 10]",3078,–
"11 (ELGLPTLLCWPTDTL; S15 library, which displays a random linear 15-mer) [compound 11]",9380,–
"12 (VSGILPILVCHPAAT; S15 library, which displays a random linear 15-mer) [compound 12]",1107,–
"14 (HVSLQSLPELICVVS; S15 library, which displays a random linear 15-mer) [compound 14]",1362,–
"15 (NWFSLPTLLCFPLNP; S15 library, which displays a random linear 15-mer) [compound 15]",3669,–
"16 (STITSLPTLQCWPIL; S15 library, which displays a random linear 15-mer) [compound 16]",13332,–
17 (PIDDESLPVLYCVTS; Random peptide) [compound 17],1785,–
"18 (PIFSSLPVLYCTSQL; S15 library, which displays a random linear 15-mer) [compound 18]",1425,–
"19 (GADTLPDLLCWESSL; S15 library, which displays a random linear 15-mer) [compound 19]",5722,–
"20 (TVFTLPELVCVVAGT; S15 library, which displays a random linear 15-mer) [compound 20]",1515,–
"21 (LPDLICAVDSGTSGA; S15 library, which displays a random linear 15-mer) [compound 21]",1161,–
23 (AGCIAFVDVVYCAR; Peptide family identified from the S18 library) [compound 23],6377,–
24 (AKCIAFGNSVYCLN; Peptide family identified from the S18 library) [compound 24],31524,–
25 (RDCIIFDKTVYCVI; Peptide family identified from the S18 library) [compound 25],17060,–
26 (KHCILFEKTVYCAK; Peptide family identified from the S18 library) [compound 26],9111,–
27 (DSCIQFANLLYCAI; Peptide family identified from the S18 library) [compound 27],53162,–
28 (TDCIRFGVLWYCLV; Peptide family identified from the S18 library) [compound 28],4746,–
29 (RACITFGKVVYCEV; Peptide family identified from the S18 library) [compound 29],30741,–
30 (AYCSFVAGDLVCQV; Peptide family identified from the S18 library) [compound 30],19792,–
31 (TDCVIFGLETYCLR; disulfide 3-12 (inferred)) [compound 31],37925,–
32 (SDCVLFGSKLFCSA; families were identified from the S18 library) [compound 32],35327,–

Substance,ELISA signal (sEGFR-MMB) [units],further results
33 (TDCVRFGETIYCIV; Peptide family identified from the S18 library) [compound 33],13291,–
34 (YDCVSFGAVAYCPQ; Peptide family identified from the S18 library) [compound 34],3205,–
35 (RGCVVFGDNIYCIV; Peptide family identified from the S18 library) [compound 35],21963,–
37 (MICYLVDSGNIICYK; Peptide family identified from the S19 library) [compound 37],8806,–
38 (YDCMIRADGSLICWC; Peptide family identified from the S19 library) [compound 38],1286,–
39 (GPCVLIRDYYLLCLE; disulfide 3-13 (inferred)) [compound 39],13951,–
40 (AFCRLDFNQWLTCLV; Peptide family identified from the S19 library) [compound 40],2581,–
41 (CDCREAVSASLVCRY; Peptide family identified from the S19 library) [compound 41],3347,–
43 (PTCDSATRRVLTICAD; Peptide family identified from the S20 library) [compound 43],5420,–
44 (WMCFLEGYGASLMCQC; Peptide family identified from the S20 library) [compound 44],4795,–
45 (DSCCSFLTDGTVVCSL; Peptide family identified from the S20 library) [compound 45],9544,–
46 (YICTPSDIDSWYICYL; Peptide family identified from the S20 library) [compound 46],6615,–
47 (SVCVGTAFPGWMVCGP; Peptide family identified from the S20 library) [compound 47],4771,–
49 (LLCATTSFRDWFVCFT; Peptide family identified from the S20 library) [compound 49],4512,–
DACTMVFLWCSL (S16 and S17 hits Phage 177) [P177],8655,–
KTCVSTTFDLWFVCFA (disulfide 3-14 (inferred)) [P176],37440,binding to A431 relative to positive control EGF phage (A431 cells): comparable to that by a positive control phage; binding to A431 tumor cells (A431 cells): displayed binding
"LPDDSLPELICKVRG (S15 library, which displays a random linear 15-mer) [P175]",6790,–
RWCYFWWITICEL (S16 and S17 hits Phage 178) [P178],7913,–
SGCLDALWQCVY (S16 and S17 hits Phage 174) [P174],34641,binding to A431 compared with MCF-7 (MCF-7): greater to A431 than to MCF-7; binding to A431 relative to positive control EGF phage (A431 cells): comparable to that by a positive control phage; binding to A431 tumor cells (A431 cells): displayed binding
TLCRSFFHPLCYA (Sequences of EGFR-Binding Peptides from pIII phage library (CNL5 P146)),–,binding to A431 relative to positive control EGF phage (A431 cells): weaker than that exhibited by a positive control phage; binding to A431 tumor cells (A431 cells): displayed binding
VLCHRYYHPICYT [P145],–,binding to A431 compared with MCF-7 (MCF-7): greater binding to A431 than MCF-7 cells; binding to A431 relative to positive control EGF phage (A431 cells): weaker than that exhibited by a positive control phage; binding to A431 tumor cells (A431 cells): displayed binding
